Measurements: patent publication US20230106715A1 (BIOSION, published 2023)
Changes are numbered by the printed parent chain.

T1: human Siglec15-mouse Fc protein (human)
T1 construct: In house made
T1 chain: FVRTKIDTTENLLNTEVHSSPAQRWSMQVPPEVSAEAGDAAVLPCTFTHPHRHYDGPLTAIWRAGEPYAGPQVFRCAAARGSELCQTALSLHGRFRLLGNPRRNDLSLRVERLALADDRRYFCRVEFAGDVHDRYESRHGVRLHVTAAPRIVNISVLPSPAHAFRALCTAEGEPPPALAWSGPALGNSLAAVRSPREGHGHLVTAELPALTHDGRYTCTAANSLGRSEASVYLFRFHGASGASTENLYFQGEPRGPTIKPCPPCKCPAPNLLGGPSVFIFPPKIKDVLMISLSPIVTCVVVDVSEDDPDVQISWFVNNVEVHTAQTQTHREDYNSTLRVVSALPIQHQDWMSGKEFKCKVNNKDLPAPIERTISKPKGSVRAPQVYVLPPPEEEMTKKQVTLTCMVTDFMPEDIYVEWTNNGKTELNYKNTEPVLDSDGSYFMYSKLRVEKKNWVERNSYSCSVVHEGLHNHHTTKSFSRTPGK

T2: recombinant human Siglec15-his protein (human, UniProt Q6ZMC9 20-263)
T2 construct: In house made; Biotin-labeled in the capture ELISA
T2 sequence: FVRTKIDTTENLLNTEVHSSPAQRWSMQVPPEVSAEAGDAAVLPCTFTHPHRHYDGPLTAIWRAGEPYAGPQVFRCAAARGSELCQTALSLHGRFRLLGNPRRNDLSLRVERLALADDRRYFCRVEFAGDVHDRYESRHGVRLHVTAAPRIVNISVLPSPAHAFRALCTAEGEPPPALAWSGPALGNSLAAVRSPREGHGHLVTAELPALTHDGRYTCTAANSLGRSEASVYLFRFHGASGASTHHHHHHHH

B1: B2D7H7A3C1 (antibody, V domains shown)
VH: QVQLQQSGAELVRPGTSVQMSCKAAGYTFTNYWIGWVKQRPGHGLEWVGDIHPGINYTNNNEKFRGKATLTADTSSNTAYMQLRGLTSDDSAIYYCARVDYDYDGSYIMDYWGQGTSVTVSS
VL: QIVLSQSPALLSASPGEKVTMTCRASSSVSYMYWYQQKPGSSPKPWIYATSNLTSGVPARFSGSGSGTSYSLTISRVEAEDAATYFCQQWNSKPWTFGGGSKLEIR
notes: Mouse monoclonal antibody from hybridoma; also called mouse B2D7H7A3C1
B2: B2G12H3E8 (antibody, V domains shown)
VH: B1 VH with Q5K, A25V, N77S
VL: B1 VL
notes: Mouse monoclonal antibody from hybridoma; also called mouse B2G12H3E8
B3: B2H2H1H7 (antibody, V domains shown)
VH: B1 VH with N77S
VL: B1 VL with V3I, K102R
notes: Mouse monoclonal antibody from hybridoma; also called mouse B2H2H1H7; B2H2H1A7
B4: anti-Siglec15 benchmark (ch5G12) (antibody, human IgG1, kappa, V domains shown)
VH: QVQLQQPGAELVKPGASVKMSCKASGYTFTSYWITWVIQRPGQGLEWIGDIYCGSDTMHYNEKFKNKATLTVDTSSSTAYMQLSSLTSEDSAVYYCARWWDYGSSYDYFDYWGQGTTLTVSS
VL: DIKMTQSPSSMYASLGERVTITCKASQDINSYLSWFQQKPGKSPKTLIYRANRLVDGVPSRFSGSGSGQDYSLTISSLEYEDMGIYYCLQYDEFPYTFGGGTKLEIKR
notes: ch5G12 (US 20190202912A1); also called BM; Siglec15-ch5G9
B5: A2A5C7E8 (antibody, V domains shown)
VH: EVQLVQSGAEVKKPGESLRISCKGSGYSFTTYWISWVRQMPGKGLEWMGLIDPSDSYTNYSPSFQGHVTISTDKSISTAYLQWSSLKASDTAMYYCARGGYYGSEEDYWGQGTLVTVSS
VL: EIVLTQSPGTLSLSPGERATLSCRASQSVSSSRLAWFQQKSGQAPRLLIFDASSRATGIPDRFSGSGSGTDFTLTISRLEPEDFAVYYCQQYGSSPRTFGQGTKVEFK
notes: Fully human antibody from transgenic mouse hybridoma; also called A2A5C7E8-1
B6: A1E10G7H9 (antibody, V domains shown)
VH: QVQLQESGPGLVKPSGTLSLTCAVSGGSISSSNWWHWVRQPPGKGLEWIGEIYHSGNTNYKPSLKSRVTISVDKSKNQFSLKLSSVTAADTAVYYCARDEGNGWSNAFDIWGQGTMVTVSS
VL: ENVLTQSPGTLSLSPGERVTLSCRASQSVSSSYLAWYQQKPGQAPRFLIYGASGGATGIPDRFSGSGSGTDFTLTISRLEPEDFAVYYCQQYGSSPITFGQGTRLEIK
notes: Fully human antibody from transgenic mouse hybridoma
B7: A2A5C7E8-2 (antibody, human IgG1, kappa, V domains shown)
VH: B5 VH with D55E
VL: EIVLTQSPGTLSLSPGERATLSCRASQSVSSSRLAWFQQKSGQAPRLLIFDASSRATGIPDRFSGSGSGTDFTLTISRLEPEDFAVYYCQQYGSSPRTFGQGTKVEFKR
notes: Variant of A2A5C7E8 modified in VH CDR2 (X1 = E)
B8: A2A5C7E8-3 (antibody, human IgG1, kappa, V domains shown)
VH: B5 VH with Q65K
VL: B7 VL
notes: Variant of A2A5C7E8 modified in VH CDR2 (X2 = K)

Target: T3, human Siglec15-Fc protein (human)
T3 construct: In house made; also called recombinant human Siglec15 protein with human IgG1 Fc at the C-terminus
Assay: competitive ELISA: biotin-labeled human Siglec15-Fc in solution, competitor coated benchmark
Procedure: (§1) The abilities of the anti-Siglec15 antibodies of the disclosure to block benchmark-human Siglec15 binding were measured in a competitive ELISA assay. Briefly, the benchmark was coated on 96-well micro plates at 2 μg/mL in PBS, 100 μl per well, and incubated for 2 hours at 37° C. Then plates were washed once with wash buffer, and blocked with 5% w/v non-fatty milk in PBST overnight at 4° C. The next day, the anti-Siglec15 antibodies of the disclosure or controls were diluted with biotin labeled human Siglec15-Fc protein (prepared in-house with SEQ ID NO: 19, 37 ng/ml in PBST with 2.5% w/v non-fatty milk), starting at 80 nM with a 4-fold serial dilution, and incubated at room temperature for 40 minutes. After plate washing 4 times, the antibody/Siglec15-Fc mixtures were added to benchmark coated plates, 100 μl per well. After incubation at 37° C. for 40 minutes, plates were washed 4 times again using wash buffer. Then the plates were added and incubated with 100 μl/well streptavidin conjugated HRP for 40 minutes at 37° C. Plates were washed again using wash buffer. Finally, TMB was added and the reaction was stopped using 1M H₂SO₄, and the absorbance of each well was read on a microplate reader using dual wavelength mode with 450 nm for TMB and 630 nm as the reference wavelength, then the OD (450-630) values were plotted against antibody concentration. Data was analyzed using Graphpad Prism software and IC₅₀ values were reported.
The mouse anti-Siglec15 antibodies of the disclosure were also tested in ligand blocking ELISA and benchmark blocking ELISA following the protocols described above.

T3 sequence (chain, as listed by the source limits assumed): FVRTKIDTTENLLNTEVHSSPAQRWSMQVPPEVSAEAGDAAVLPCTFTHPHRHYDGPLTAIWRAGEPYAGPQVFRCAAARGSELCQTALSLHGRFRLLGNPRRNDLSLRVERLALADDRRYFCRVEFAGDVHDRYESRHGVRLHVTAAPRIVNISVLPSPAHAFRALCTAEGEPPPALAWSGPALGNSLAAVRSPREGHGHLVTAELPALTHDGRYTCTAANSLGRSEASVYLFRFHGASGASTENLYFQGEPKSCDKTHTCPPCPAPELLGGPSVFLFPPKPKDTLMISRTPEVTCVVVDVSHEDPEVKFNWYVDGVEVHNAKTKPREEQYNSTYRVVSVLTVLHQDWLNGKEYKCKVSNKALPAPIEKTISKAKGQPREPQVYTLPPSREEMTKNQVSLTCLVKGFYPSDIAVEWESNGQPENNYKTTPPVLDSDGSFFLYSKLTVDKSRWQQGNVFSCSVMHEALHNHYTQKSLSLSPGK

IC50 [nM] | Binder
0.081 | B1
0.063 | B2
0.0642 | B3
0.447 | B4

Target: T1, human Siglec15-mouse Fc protein
Assay: cell based blocking FACS: human Siglec15-mouse Fc in solution, blocked ligand human LRRC4C on LRRC4C-3F12-1B9 cells
Procedure: The activities of the anti-Siglec15 antibodies to block binding of Siglec15 protein to cell surface LRRC4C were evaluated by Flow Cytometry (FACS), using in house made LRRC4C-3F12-1B9 cells. Briefly, HEK-293 cells (ATCC #CRL-1573) were transfected with pCMV-T-P plasmid constructs with the nucleotide sequence encoding human LRRC4C (amino acid residues Met1-Ile640 of uniprot #Q9HCJ2) inserted between EcoRI and XbaI, following the instruction of lipofectamine 3000 transfection reagent (Thermo Fisher). A stable cell named LRRC4C-3F12-1B9 was chosen for subsequent cell based ligand-blocking assay.
Briefly, the anti-Siglec15 antibodies of the disclosure or controls were diluted with human Siglec15-mouse Fc protein (prepared in-house with SEQ ID NO: 26, 8 μg/ml […] in FACS buffer), starting at 66.67 nM with a 5-fold serial dilution, and incubated at room temperature for 40 minutes. Then, LRRC4C-3F12-1B9 cells were harvested from cell culture flasks, washed twice and re-suspended in PBS containing 2% v/v Fetal Bovine Serum (FACS buffer). Then, 1×10⁵ cells per well in 96 well-plates were incubated in 100 μL of the antibody/Siglec15-mouse Fc mixtures for 40 minutes at 4° C. […] Cells were washed twice and re-suspended in FACS buffer. Fluorescence was measured using a Becton Dickinson FACS Canto II-HTS equipment. Data was analyzed using Graphpad Prism software and IC₅₀ values were reported.

IC50 [nM] | Binder
2.07 | B5
0.586 | B4
3.78 | B6

Target: T2, recombinant human Siglec15-his protein
Assay: capture ELISA, captured antibody, biotin-labeled human Siglec15-his in solution
Procedure: Briefly, 96-well plates were coated with 100 μl of 2 μg/ml AffiniPure Goat Anti-Human IgG F(ab′)₂ fragment specific (Jackson Immuno Research, Cat #109-005-097) in PBS for 2 hours at 37° C. Plates were washed once with wash buffer (PBS+0.05% v/v Tween-20, PBST) and then blocked with 200 μl blocking buffer (5% w/v non-fatty milk in PBST) overnight at 4° C. Plates were washed 4 times and respectively incubated with 100 μl serially diluted anti-Siglec15 antibodies of the disclosure, the benchmark and hIgG (human immunoglobulin (pH4) for intravenous injection, Hualan Biological Engineering Inc.), 5-fold dilution in 2.5% w/v non-fatty milk in PBST starting at 66.7 nM, for 40 minutes at 37° C., and then washed 4 times again. Plates containing captured antibodies were incubated with 100 μl biotin-labeled human Siglec15-his protein (in house made with SEQ ID NO: 20, 145 ng/ml in 2.5% w/v non-fatty milk in PBST) for 40 minutes at 37° C., washed 4 times, and incubated with streptavidin conjugated HRP (1:10000 dilution in PBST, Jackson Immuno Research, Cat #016-030-084, 100 μl/well) for 40 minutes at 37° C. After a final wash, plates were incubated with 100 μl/well ELISA substrate TMB (Innoreagents, Cat #TMB-S-002). The reaction was stopped in 4 minutes at room temperature with 50 μl/well 1M H₂SO₄, and the absorbance of each well was read on a microplate reader using dual wavelength mode with 450 nm for TMB and 630 nm as the reference wavelength, then the OD (450-630) values were plotted against antibody concentration. Data was analyzed using Graphpad Prism software and EC₅₀ values were reported.

EC50 [nM] | Binder
0.0848 | B5
0.502 | B7
0.0902 | B8
1.79 | B4

Target: T3, human Siglec15-Fc protein
Assay: competitive ELISA: biotin-labeled human Siglec15-Fc in solution, competitor coated benchmark
Remark: another data set of the same source
Procedure: as §1

IC50 [nM] | Binder
0.0387 | B5
0.0178 | B7
0.0357 | B8
0.229 | B4
